Test results published in publication PMC11260460, “A Plasmodium apicoplast-targeted unique exonuclease/FEN exhibits interspecies functional differences attributable to an insertion that alters DNA-binding”.

What was measured:
PfExo [1] = target: T1, PfExo (Plasmodium falciparum 3D7, UniProt O96139 91-577); assay: BLI; KD value only in figure; EMSA: 400 nM FAM-DNA, binding buffer as printed 200 mM HEPES pH 8.0, 500 mM NaCl, 10 mM DTT, 1 mg/ml BSA, 10% glycerol, 2 mM MgCl2, 30 min on ice, 6% native PAGE; BLI: 1x kinetic buffer in 1x PBS, Octet R8, 1:1 global fit; details: protein: recombinant; tags: C-terminal 6xHis; label: 5' biotin on strand 1; blunt
T1 sequence: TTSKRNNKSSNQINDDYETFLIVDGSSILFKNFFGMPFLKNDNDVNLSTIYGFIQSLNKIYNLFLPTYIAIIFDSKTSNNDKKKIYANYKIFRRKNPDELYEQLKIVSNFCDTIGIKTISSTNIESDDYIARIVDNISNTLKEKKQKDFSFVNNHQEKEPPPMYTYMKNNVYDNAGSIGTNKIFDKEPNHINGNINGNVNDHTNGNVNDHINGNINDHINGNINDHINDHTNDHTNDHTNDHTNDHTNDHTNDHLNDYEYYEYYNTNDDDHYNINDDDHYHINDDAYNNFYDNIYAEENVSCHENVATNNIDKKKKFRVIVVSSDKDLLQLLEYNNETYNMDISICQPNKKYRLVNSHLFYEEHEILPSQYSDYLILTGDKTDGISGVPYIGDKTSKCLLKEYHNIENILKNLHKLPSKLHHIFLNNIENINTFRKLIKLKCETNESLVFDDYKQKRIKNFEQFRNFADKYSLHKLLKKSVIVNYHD

PfExoΔins [2] = target: T2, PfExoΔins (Plasmodium falciparum 3D7, UniProt O96139 91-577, del241-393); assay: BLI; EMSA: 400 nM FAM-DNA, binding buffer as printed 200 mM HEPES pH 8.0, 500 mM NaCl, 10 mM DTT, 1 mg/ml BSA, 10% glycerol, 2 mM MgCl2, 30 min on ice, 6% native PAGE; BLI: 1x kinetic buffer in 1x PBS, Octet R8, 1:1 global fit; details: protein: recombinant; tags: C-terminal 6xHis; label: 5' biotin on strand 1; blunt
PfExoΔins [3] = target: T2, PfExoΔins; assay: EMSA; 2 mM Mg2+; EMSA: 400 nM FAM-DNA, binding buffer as printed 200 mM HEPES pH 8.0, 500 mM NaCl, 10 mM DTT, 1 mg/ml BSA, 10% glycerol, 2 mM MgCl2, 30 min on ice, 6% native PAGE; BLI: 1x kinetic buffer in 1x PBS, Octet R8, 1:1 global fit; details: protein: recombinant, tags: C-terminal 6xHis
PfExo [4] = target: T1, PfExo; assay: as above; details: protein: recombinant, tags: C-terminal 6xHis

B1: BLI blunt-end dsDNA (34 bp) (dsDNA)
DNA 1: CAGTCCGAGCTAGGCAACATACGATAATCCATAC
DNA 2: GTATGGATTATCGTATGTTGCCTAGCTCGGACTG
Which results are given for B1?
binding result (PfExo [1]): binds; binding signal (PfExoΔins [2]): ~5 fold higher KD than PfExo

B2: 5'-flap DNA (dsDNA)
DNA 1: AAAACGTCAACTAGCTTCTCAAACAGCTCATATATCTTAA
DNA 2: B1 DNA 1
DNA 3: TTAAGATATATGAGCAGTATGGATTATCGTATGTTGCCTAGCTCGGACTG
Does B2 bind (PfExoΔins [3]; label: FAM, 5' flap)?
Result: no binding

Does B2 bind (PfExo [4]; label: FAM, 5' flap)?
Result: binds

Does AAAACGTCAACTAGCTTCTCAAACACCTCATATATCTTAA (ssDNA) [ssDNA 5'-3' exo substrate] bind (PfExo [4]; label: 3' 6-FAM, single strand)?
Result: binds

Does AAAACGTCAACTAGCTTCTCAAACAGCTCATATATCTTAA (ssDNA) [ssDNA 3'-5' exo substrate] bind (PfExo [4]; label: 5' 6-FAM, single strand)?
Result: binds

B3: Blunt-end dsDNA (14 bp) (dsDNA)
DNA 1: CTAGTGTACATGCA
DNA 2: TGCATGTACACTAG
Does B3 bind (PfExoΔins [3]; label: 3' 6-FAM on strand 1, blunt)?
Result: no binding
